Laboratory results taken from US8791249B2, “Nucleic acid encoding humanized c-kit antibody” (Amgen Inc., priority 2006, dated 2014).
Values joined by “and” are separate entries in the source; they are usually repeats but may differ in a detail not shown here. Equal values may be shown once. “Also recorded” adds a separate entry of the source.

Columns and labels:
c-Kit dimer = experiment: Biacore binding to c-Kit dimer versus soluble monomer; set-up: species or system human
From the text: Activation of c-Kit upon binding by stem cell factor (SCF) leads to dimerization/oligomerization, autophosphorylation and receptor internalization, most likely through a clathrin-dependent pathway. The SR-1 monoclonal antibody binds the c-Kit dimer with 1000-fold higher affinity compared to the soluble c-Kit extra-cellular domain monomer as determined by Biacore.
Carbohydrates present on a glycoprotein can influence biological and functional properties. […] This is an important characteristic not predicted to be translated with certainty with the humanization and as the soluble c-Kit monomer is less likely to act as a sink for the antibody in vivo.

c-Kit in MO7e cells = experiment: SCF-mediated c-Kit phosphorylation and internalization in MO7e cells; type: cell-based
[1] = test system: human CD34+, CD 117+ (c-Kit) bone marrow cells; experiment: CD34+ bone marrow cell CFU assay (SCF/GM-CSF colony formation), human; type: cell-based
Description: (§1) The SR-1 monoclonal antibody was selected based on its equivalent functional potency at human and monkey c-Kit in the CD34+ bone marrow cell CFU assay (inhibition at 1.0 ug/mL), and its monkey PK.

[2] = test system: Cultured human mast cells derived from bone marrow CD34+ cells; experiment: Cultured human mast cell assays (survival, c-Kit phosphorylation, aggregation); type: cell-based
[3] = test system: U-937 cells expressing Fcγ receptor I=CD64, Fcγ receptor II=CD32 and Fcγ receptor III=CD16; experiment: Non-specific FcR binding to U-937 cells; type: cell-based
From the text: (§2) In contrast, binding of SR-1 IgG1 and IgG4β isotypes was detected presumably to the high affinity FcγRI. […] Aglycosylated chimeric mouse/human IgG1 antibodies have been reported to […] (Hybridoma. 1991 April; 10(2):211-7) and so these desired activities of hSR-1 aIgG1 are not expected.

[4] = Effector function (CDC, ADCC); type: cell-based
From the text: as §2

[5] = Exposure after repeated once-weekly dosing; type: in vivo, African green monkeys; settings: preliminary exposure data
From the text: Based on preliminary exposure data of SR-1 and humanized antibodies in African green monkeys after repeated once-weekly dosing, humanized antibodies achieved higher exposures compared to SR-1. […] 1992; 35(3): 165-74.

[6] = test system: basal lung and colon mast cells; experiment: Depletion of basal lung and colon mast cells in monkey; type: in vivo
Description: as §1
[…] […] For practical reasons, basal pulmonary mast cells were evaluated on day 28 at the time of necropsy and the termination of the study.

[7] = Human dose projection (body surface area-based dose conversion); settings: equivalent dosing regimen, preliminary estimation
Description: The minimal effective dose in the wound PD model of mast cell expansion is <0.3 mg/Kg administered once weekly for 2 weeks in monkeys. Based on a body surface area-based dose conversion, the minimal effective dose in human is projected to be <0.1 mg/Kg with an equivalent dosing regiment. However, this is a preliminary estimation as the PK and the pharmacodynamic relationship between the degree and duration of c-kit inhibition in human by hSR-1 aIgG1 and clinical endpoints are unknown at this time. A more accurate projection will be made when more pharmacokinetic and pharmacodynamic data are available.

[8] = In vivo tolerability in non-human primates; settings: up to 30 mg/kg once weekly for 4 weeks or up to 150 mg/kg subcutaneously once weekly for 2 weeks
[9] = Preliminary PK study after single IV or SC administration
Description: A preliminary PK study was conducted to compare hSR-1 IgG2 and hSR-1 aIgG1 PK in male cynomolgus monkeys after a single IV or SC administration at 3 mg/kg.

[10] = test system: wound activated skin mast cells; experiment: Wound pharmacodynamic model of mast cell expansion in monkey; settings: for Fold UT-7 IC50 (Ctrough) / Inhibition of activated skin mast cells: day 14; for minimal effective dose in the wound PD model: once weekly for 2 weeks in monkeys; for inhibition of wound activated expansion of mast cells: 3 weeks
c-Kit [11] = biological target: T1, c-Kit (Homo sapiens, UniProt P10721); experiment: Cell based assays of c-Kit signaling (functional potency, agonism, internalization); set-up: endogenous in cells; host or cells: MO7e cells; cultured human mast cells derived from bone marrow CD34+ cells; primary human CD34+ CD117+ bone marrow cells; UT-7 cells; settings: all cell based assays tested
T1 sequence (P10721 26-976): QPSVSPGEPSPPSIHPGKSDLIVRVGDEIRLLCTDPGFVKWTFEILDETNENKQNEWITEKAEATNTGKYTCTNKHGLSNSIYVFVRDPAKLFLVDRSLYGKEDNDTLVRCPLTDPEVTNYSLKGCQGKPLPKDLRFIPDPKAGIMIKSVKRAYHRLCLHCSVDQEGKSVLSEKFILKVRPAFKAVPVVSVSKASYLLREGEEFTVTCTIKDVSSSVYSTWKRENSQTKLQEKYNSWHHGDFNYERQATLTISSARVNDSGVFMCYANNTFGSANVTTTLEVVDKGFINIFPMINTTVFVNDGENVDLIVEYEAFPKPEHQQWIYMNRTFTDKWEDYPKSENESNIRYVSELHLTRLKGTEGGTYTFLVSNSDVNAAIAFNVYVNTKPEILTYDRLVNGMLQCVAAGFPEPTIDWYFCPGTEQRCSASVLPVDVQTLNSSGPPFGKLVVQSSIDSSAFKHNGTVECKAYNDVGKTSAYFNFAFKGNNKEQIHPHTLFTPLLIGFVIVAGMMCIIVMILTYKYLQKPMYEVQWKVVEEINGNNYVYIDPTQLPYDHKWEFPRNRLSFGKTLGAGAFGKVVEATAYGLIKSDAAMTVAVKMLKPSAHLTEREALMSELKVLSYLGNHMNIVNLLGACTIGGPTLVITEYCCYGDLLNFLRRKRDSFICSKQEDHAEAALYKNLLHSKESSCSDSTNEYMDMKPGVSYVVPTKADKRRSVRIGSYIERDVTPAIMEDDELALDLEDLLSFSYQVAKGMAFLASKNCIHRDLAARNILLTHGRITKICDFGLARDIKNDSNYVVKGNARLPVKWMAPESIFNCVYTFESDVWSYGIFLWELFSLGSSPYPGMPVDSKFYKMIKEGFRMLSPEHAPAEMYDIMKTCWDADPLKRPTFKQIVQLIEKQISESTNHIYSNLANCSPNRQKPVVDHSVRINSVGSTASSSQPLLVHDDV
From the text: These properties are potentially undesirable since the aim of a therapeutic strategy is to apoptotically deplete mast cells and precurors by blocking the survival SCF signal and to avoid mast cell activation that could lead to anaphylactoid reactions in vivo. When the mouse SR-1 CDR regions were inserted in the human IgG1 framework, affinity and functional potency were also maintained, but this background is less desirable due to the complement activation and cell mediated cytotoxicity often found with this isotype of antibody.
The aglycosylated IgG1 isotype was chosen to avoid effector function and cell killing through bystander effects. […] It also depletes mast cells in vivo as expected.

monkey c-Kit = experiment: CD34+ bone marrow cell CFU assay, monkey; type: cell-based; settings: 1.0 ug/mL
Description: as §1

hematopoiesis = experiment: Hematopoiesis in SR-1 dose-ranging study; type: in vivo, African green monkey
Description: (§3) SR-1 was used in dose-ranging studies from 3 to 30 mg/Kg administered once weekly for 4 weeks to determine the exposures required to inhibit hematopoiesis, spermatogenesis and active melanogenesis. A full blood panel including cell differentials was performed on blood samples taken at baseline, day 4, 7, 14, 21 and 28 after the start of the study. Analysis of freshly isolated blood samples was performed at the Queen Elizabeth Hospital Clinical Hematology lab, Barbados.
(§4) The effect of 3-30 mpk administered once weekly for 4 weeks on melanogenesis was also examined since there may be utility in melanoma. To assess the effects on activated melanocytes which may better reflect a disease state, hair was depilated to activate melanogenesis. […] In the 10 mg/Kg cohort, SR-1 exposures were >8000-fold the UT-7 IC50.

melanocytes = experiment: Melanogenesis (hair pigmentation after depilation) in dose-ranging study; type: in vivo, monkeys
Description: as §3, §4

spermatogenesis = experiment: Spermatogenesis in dose-ranging study; type: in vivo, monkey
c-Kit [12] = biological target: T1, c-Kit; set-up: endogenous in cells; host or cells: MO7e cells; cultured human mast cells derived from bone marrow CD34+ cells; primary human CD34+ CD117+ bone marrow cells; UT-7 cells; settings: Broudy, J Cell Physiol. 1994; cited from earlier work
[13] = IV, 3 mg/kg, male cynomolgus monkeys
[14] = SC, 3 mg/kg, male cynomolgus monkeys

Chain of c-Kit dimer (P10721 26-509 limits assumed): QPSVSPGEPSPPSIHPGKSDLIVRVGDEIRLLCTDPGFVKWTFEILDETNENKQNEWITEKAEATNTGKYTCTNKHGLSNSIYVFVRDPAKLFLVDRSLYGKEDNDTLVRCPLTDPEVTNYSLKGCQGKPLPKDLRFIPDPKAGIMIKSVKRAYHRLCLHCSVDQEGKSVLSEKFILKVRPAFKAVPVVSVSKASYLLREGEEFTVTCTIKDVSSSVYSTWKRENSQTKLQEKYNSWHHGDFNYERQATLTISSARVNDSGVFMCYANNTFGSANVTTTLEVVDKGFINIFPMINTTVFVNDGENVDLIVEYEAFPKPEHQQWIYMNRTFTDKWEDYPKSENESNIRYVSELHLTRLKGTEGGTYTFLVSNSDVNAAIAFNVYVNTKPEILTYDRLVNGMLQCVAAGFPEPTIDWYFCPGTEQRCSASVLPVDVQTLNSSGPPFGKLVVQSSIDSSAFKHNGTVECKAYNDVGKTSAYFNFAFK

hSR-1 aIgG1: Humanized anti-c-Kit aglycosylated IgG1 antibody; kappa light chain SEQ ID NO: 2, heavy chain SEQ ID NO: 4
binding to receptor dimer / membrane c-Kit versus monomer / soluble c-Kit (c-Kit dimer): higher affinity to the membrane c-Kit compared to soluble c-kit; also recorded: high affinity to the receptor dimer versus monomer | inhibition of SCF-mediated c-Kit phosphorylation and internalization (c-Kit in MO7e cells): potently inhibited | agonism in c-Kit receptor proximal phosphorylation read-out (c-Kit in MO7e cells; antibody alone): no evidence of agonism | survival relative to baseline [1]: inhibit survival below baseline | neutralization of the synergistic effect of SCF on GM-CSF derived colony formation ([1]; 1.0 ug/mL): neutralization | intrinsic agonistic survival activity ([1]; up to 10 ug/mL): no intrinsic agonistic survival activity | homotypic mast cell aggregation / clustering [2]: no ability to mediate homotypic mast cell aggregation | inhibition of SCF-dependent mast cell survival [2]: inhibited | c-Kit receptor phosphorylation mediated by the antibody ([2]; FIG. 3): did not mediate | survival signal conferred to mast cells (agonist activity) ([2]; antibody alone): conferred no survival signal | non-specific FcR binding [3]: no detectable | complement dependent cytotoxic cell death [4]: no complement dependent cytotoxic cell death | ADCC activity ([4]; predicted from lack of FcR binding): no ADCC activity | exposure compared within group [5]: equal best in group PK | Depletion of basal colon mast cells ([6]; 0.3 mg/kg once weekly, day 14): no efficacy; also recorded: No effect | Depletion of basal colon mast cells ([6]; 1.0 mg/kg once weekly, day 14): >65% | Depletion of basal colon mast cells ([6]; 3.0 mg/kg once weekly, day 14): >95% | projected minimal effective dose in human [7]: < 0.1 mg/kg | abnormalities on in vivo dosing [8]: No unexpected abnormalities | AUC0-tlast [9, 13]: 9710 µg·h/mL | C0 [9, 13]: 103 µg/mL | CL ([9]; IV, 3 mg/kg, calculated based on AUC0-tlast): ≦0.309 mL/hr/kg | AUC0-tlast [9, 14]: 7970 µg·h/mL | Cmax [9, 14]: 36.4 µg/mL | Tmax [9, 14]: 72 h | PK time profile ([9]; single IV or SC 3 mg/kg): non-linear PK | Fold UT-7 IC50 (Ctrough) ([10]; 0.3 mg/kg once weekly): >200 fold | Fold UT-7 IC50 (Ctrough) ([10]; 1.0 mg/kg once weekly): >2000 fold | Inhibition of activated skin mast cells ([10]; 1.0 mg/kg once weekly): >95% | Fold UT-7 IC50 (Ctrough) ([10]; 3.0 mg/kg once weekly): >7000 fold | Inhibition of activated skin mast cells ([10]; 3.0 mg/kg once weekly): >95% | minimal effective dose in the wound PD model [10]: < 0.3 mg/kg | antagonism of SCF (c-Kit [11]): highly potent neutral antagonist | agonism of c-Kit (c-Kit [11]; proximal and distal read-outs): no agonism

B1: SR-1: Murine anti-human c-Kit antibody; light chain SEQ ID NO: 8, muIgG2a heavy chain SEQ ID NO: 10 (antibody, listed as Homo sapiens)
heavy: MGWSCIILFLVATATGVHSQVQLQQPGAELVKPGASVKMSCKASGYTFTSYNMHWVKQTPGQGLEWIGVIYSGNGDTSYNQKFKGKATLTADKSSSTAYMQINSLTSEDSAVYYCARERDTRFGNWGQGTLVTVSAAKTTAPSVYPLAPVCGDTTGSSVTLGCLVKGYFPEPVTLTWNSGSLSSGVHTFPAVLQSDLYTLSSSVTVTSSTWPSQSITCNVAHPASSTKVDKKIEPRGPTIKPCPPCKCPAPNLLGGPSVFIFPPKIKDVLMISLSPIVTCVVVDVSEDDPDVQISWFVNNVEVHTAQTQTHREDYNSTLRVVSALPIQHQDWMSGKEFKCKVNNKDLPAPIERTISKPKGSVRAPQVYVLPPPEEEMTKKQVTLTCMVTDFMPEDIYVEWTNNGKTELNYKNTEPVLDSDGSYFMYSKLRVEKKNWVERNSYSCSVVHEGLHNHHTTKSFSRTPGK
light: METDTLLLWVLLLWVPGSTGNIVLTQSPASLAVSLGLRATISCRASESVDIYGNSFMHWYQQKPGQPPKLLIYLASNLESGVPARFSGSGSRTDFTLTIDPVEADDAATYYCQQNNEDPYTFGGGTKLEIKRADAAPTVSIFPPSSEQLTSGGASVVCFLNNFYPKDINVKWKIDGSERQNGVLNSWTDQDSKDSTYSMSSTLTLTKDEYERHNSYTCEATHKTSTSPIVKSFNRNEC
affinity for c-Kit dimer compared to soluble c-Kit extra-cellular domain monomer (c-Kit dimer; Biacore): 1000 fold | functional potency at human c-Kit in CFU assay ([1]; 1.0 ug/mL): inhibition | functional potency at monkey c-Kit in CFU assay (monkey c-Kit): inhibition | Ctrough PK level as fold the UT-7 cellular IC50 ([6]; 3.0 mg/Kg once weekly, basal lung mast cell depletion): > 200 fold | depletion of basal lung mast cells ([6]; 3.0 mg/Kg once weekly, day 28): depletion of basal lung mast cells was observed | depletion of basal colon mast cells, time course ([6]; 3 mg/Kg to 30 mg/Kg once weekly, after 2 doses by day 14): maximally depleted | Ctrough as fold the cell IC50 at depletion of basal mast cells ([6]; day 14): > 800 fold | exposure levels as fold the UT-7 IC50 (hematopoiesis; 30 mg/Kg once weekly over 4 weeks): > 70,000 fold | impact on hematological parameters (hematopoiesis; 3 to 30 mg/Kg once weekly for 4 weeks, versus control and baseline): No significant impact | RBCs (hematopoiesis; 4 weeks after dosing started): non-significant decreases | CD117 positive hematopoietic stem cells (hematopoiesis; bone marrow): no depletion | bone marrow histopathological analysis (hematopoiesis; monkey, in vivo): no difference between drug treated and control cohorts | exposures as fold the UT-7 IC50 (melanocytes; 10 mg/Kg cohort): > 8000 fold | pigmentation of newly regrown hair (melanocytes; 10 mg/Kg cohort): No effect | pigmentation of newly regrown hair (melanocytes; 30 mg/Kg dose): inhibition of hair pigmentation to variable degrees | normal hair color of the coat (melanocytes; 3-30 mpk once weekly for 4 weeks, any cohort): not visibly affected | exposure (fold the cell IC50) required before qualitative impacts on pigmentation of newly regrown hair (melanocytes; monkey, in vivo): > 8000 fold | no effect dose on hair pigmentation (melanocytes; once weekly for 4 weeks): 10 to 30 mg/kg | effect on spermatogenesis at lowest dose (spermatogenesis; 0.3 mg/Kg once weekly): less than the maximal effect; also recorded: sub-maximal effect | exposure as fold the UT-7 IC50 (spermatogenesis; 0.3 mg/Kg once weekly): 7 fold and > 7 fold | inhibition of spermatogenesis (spermatogenesis; 0.3-30 mg/Kg): dose-dependent inhibition | recovery of spermatogenesis (spermatogenesis; 9 months, all dosed animals): Normal spermatogenesis | inhibition of wound activated expansion of mast cells ([10]; 0.3 mpk dose): partial inhibition | inhibition of wound activated expansion of mast cells ([10]; 1 and 3 mg/Kg cohorts): maximal efficacy | effect on mast cells in wound activated model ([10]; FIG. 1): inhibits mast cells | sustained Ctrough exposure (fold the IC50) required for maximal inhibition of wound-expanded mast cells ([10]; monkey, in vivo): > 7 fold | minimal effective dose in the wound PD model [10]: < 0.3 mg/kg | intrinsic activity at c-Kit (c-Kit [12]): some agonist-like activity
